{
  "source": "paper PMC11581024",
  "about": "(bioRxiv, 2024)",
  "proteins": {"B1": {"name": "Treponema denticola ComFB (natural protein)", "chain": "MIIHNVMEDLVYTEVNKLFDEAEEKKESWLTCSCMQCRVDTMCYVLNRVKPRYIKSGRGLAHFLKFEKTEKVQIMADITSLVIEGMHRVLSTKRPHDHEPIFETENTPVFNFPAITGNILNGSNFRPMEDATISLKMNGELVSQMSILWDNPYTISEKTPGAYTFCPKAIPAKNAGDKEKFIFVLKAEKEGFDPTNFSFDIELTAEDMVKSPLDSSNFYQIKNLFLCEHSEEE"}},
  "molecular_target": "the molecule itself",
  "assay": "SEC-MALS",
  "data": [
    {"protein": "B1", "values": [
      {"measurement": "stoichiometry N", "value": 2}
    ]}
  ]
}
